Results reported in patent publication US20150216933A1, “HEMATOPOIETIC STEM CELL GROWTH FACTOR” (DUKE UNIVERSITY, priority 2008, published 2015).

Key:
34−KSL cells = test: Competitive repopulating assay at 4 weeks (Example 1); type: in vivo, mouse; settings: lineage repopulation in transplanted mice
Description: 34^−KSL cells from B6.SJL mice, carrying the CD45.1 allele, were sorted into 96-well U-bottomplates (BD) containing IMDM+10% FBS+1% pcn/strp. Day 0 34^−KSL cells were either isolated for injection into recipient animals, or placed into cultures containing TSF, TSF+recombinant PTN, co-culture with HUBECs+goat IgG, or HUBECs+goat anti-PTN. Recipient C57BL6 animals, expressing the CD45.2 allele, received an LD100/30 dose of 950 cGy total body irradiation (TBI) using a Cs137 irradiator and then transplanted via tail vein injection with 10, 30 or 100 34^−KSL cells or their progeny following culture. A rescue dose of 1×10^5 non-irradiated CD45.2 MNCs were co-injected into recipient mice. Multi-lineage hematologic reconstitution was monitored in the peripheral blood (PB) by flow cytometry, as previously described, at 4, 8, 12, and 24 weeks posttransplant. PB was collected via submandibular puncture; cells were treated with RBC lysis buffer (Sigma-Aldrich), and washed twice prior to staining with FITC- or PE-CD45.1, FITC-CD45.2, PE-anti-Thy 1.2, APC-anti-B220, APC-anti-Ter-119, or PE-anti-Mac-1 and PE-anti-Gr1. Animals were considered to be engrafted if donor CD45.1 cells were present at >1% for all lineages (Zhang et al, Nat. Med. 12:240-245 (2006)).
For the competitive repopulating assays, recipient CD45. […]

BM 34−KSL cells [1] = test: Competitive repopulating unit (CRU) assay of 34−KSL cell progeny cultured with TSF or TSF+PTN (Example 2); type: in vivo, mouse
Procedure: BM 34^−KSL cells were either isolated for injection into recipient animals, or placed into cultures containing TSF alone, TSF+PTN, TSF+HUBECs+goat IgG, or TSF+HUBECs+goat anti-PTN. Recipient C57BL6 animals (CD45. 2^+) received 950 cGy total body irradiation (TBI) and were then injected via tail vein with limiting doses of BM 34^−KSL cells or their progeny following culture. 1×10^5 host BM MNCs were co-injected-into recipient mice as competitor cells. Multilineage hematologic reconstitution was measured in the PB by flow cytometry over time post-transplant as previously described (Reya, et al, Nature 423:409-14 (2003), Salter et al, Blood 113:2104-7 (2009)). Animals were considered to be engrafted if donor CD45. 1^+ cells were present at ≧1% in the PB (Chute et al, Blood 100:4433-9 (2002), Chute et al, Blood 105: 576-83 (2005), (Chute et al, Proc Natl Acad Sci USA 103, 11707-12 (2006)). CRU estimates were performed using L-Calc software (Stem Cell Technologies) as previously described (Reya, et al, Nature 423:409-14 (2003), Chute et al, Blood 109:2365-72 (2007), Chute et al, Proc Natl Acad Sci USA 103, 11707-12 (2006)).
In order to determine if treatment with PTN could induce functional HSC expansion in culture, competitive repopulating unit (CRU) assays were performed using limiting dilutions of donor CD45. 1^+ BM 34^−KSL cells transplanted into lethally irradiated CD45. 2^+ C57Bl6 mice. Peripheral blood (PB) was collected from primary recipient mice at 4 weeks, 12 weeks and 24 weeks to assess the engraftment of donor CD45. 1^+ cells in the PB of recipient mice. […] 1^+ donor cell engraftment in the PB compared to mice transplanted with the identical dose of day 0 34^−KSL cells and mice transplanted with the progeny of 34^−KSL cells cultured with TSF alone (FIG. 6C, P=0.0008 and P=0.001, respectively). […] The PB engraftment of multilineage donor CD45. […] As expected, the CRU frequency within the progeny of 34^−KSL cells following culture with cytokines alone (TSF) was reduced to 1 in 58 cells (95% CI: 1/31 to 1/108). Conversely, the CRU frequency within the progeny of 34^−KSL cells cultured with TSF+PTN was 1 in 10 cells (95% CI: 1/5 to 1/20). Therefore, the addition of PTN induced a 4-fold increase in HSCs compared to input and a 6-fold increase compared to the progeny of TSF alone. […] 1^+ cell reconstitution at all time points through 24 weeks compared to mice transplanted with day 0 34^−KSL cells or their progeny following culture with TSF alone (FIG. 6F). This corresponded to an increased CRU frequency in the PTN-treated progeny compared to input 34^−KSL cells at all time points. […]

BM 34−KSL cells [2] = test: Liquid suspension culture of BM 34−KSL cells with TSF with and without PTN x 7 days; type: cell-based, mouse
Procedure: The above “loss of function” studies strongly implicated PTN as a secreted growth factor for HSCs.
Purified BM 34^−KSL cells were isolated from C57Bl6 and B6.SJL mice (Jackson Laboratory, Bar Harbor, Me.) via flow cytometric cell sorting as previously described (Reya, et al, Nature 423:409-14 (2003), Salter et al, Blood 113:2104-7 (2009)). Liquid suspension cultures of BM 34^−KSL cells were supplemented with IMDM+10% FBS+1% pcn/strp+20 ng/ml thrombopoietin, 120 ng/ml SCF, and 50 ng/ml flt-3 ligand (“TSF” media) with and without recombinant (human) PTN (R&D Systems, Minneapolis, Minn.). Non-contact HUBEC cultures were conducted using 0.4 μm transwell inserts (Corning, Lowell Mass.) and supplemented with TSF media with and without goat anti-PTN or isotype control antibody (R&D). Phenotypic analysis for KSL cells was performed as previously described (Chute et al, Blood 109:2365-72 (2007), Salter et al, Blood 113:2104-7 (2009)).
Since PTN has no known function in regulating hematopoiesis (Meng et al, Proc Natl Acad Sci USA 97: 2603-8 (2000)), an examination was first made as to whether BM stem/progenitor cells expressed one or more of the PTN receptors, receptor protein tyrosine phosphatase β/ζ (RPTP β/ζ), Syndecan or anaplastic lymphoma kinase (ALK) (Stoica et al, J Biol Chem 276:16772-9 (2001), Landgraf et al, J Biol Chem 283:25036-45 (2008)). The majority of BM MNCs and c-kit+sca-1^+lin^− (KSL) stem/progenitor cells expressed RPTP β/ζ (n=3, mean 87.0%±8.8 and 89%, respectively; FIG. 6A), whereas neither population expressed Syndecan or ALK (data not shown). In order to determine whether PTN might be a growth factor for HSCs, C57Bl6 BM CD34^−KSL cells, which are highly enriched for HSCs (Kiel et al, Nat Rev Immunol 8:290-301 (2008), Salter et al, Blood 113:2104-7 (2009)), were isolated by FACS and placed in liquid suspension culture with 20 ng/mL thrombopoietin, 120 ng/mL SCF and 50 ng/mL Flt-3 ligand (“TSF”) with or without 10, 100 or 1000 ng/mL PTN.

[3] = 100 ng/mL PTN added to TSF, 7 days
[4] = increasing doses (10, 100, 1000 ng/mL) of rPTN with TSF, Example 1

B1: PTN: Pleiotrophin, heparin binding growth factor; recombinant human PTN purchased from R&D systems (protein, UniProt P21246 33-168, looked up)
Pleiotrophin: GKKEKPEKKVKKSDCGEWQWSVCVPTSGDCGLGTREGTRTGAECKQTMKTQRCKIPCNWKKQFGAECKYQFQAWGECDLNTALKTRTGSLKRALHNAECQKTVTISKPCGKLTKPKPQAESKKKKKEGKKQEKMLD
For B1, which “multilineage differentiation potential of HSCs” value (34−KSL cells) is on record?
The value was “did not alter the normal multilineage differentiation potential”.

What about the “increase in HSCs compared to input” value (BM 34−KSL cells [1]; 12 week CRU) of the same molecule?
Its value is 4 fold.

And the “increase in HSCs compared to the progeny of TSF alone” value (BM 34−KSL cells [1]; 12 week CRU)?
The value was 6 fold.

What about the “increase in CD45.1+ donor cell engraftment in the PB” value (BM 34−KSL cells [1]; 12 weeks post-transplant, vs day 0 34−KSL cells and progeny of TSF alone, 100 ng/mL PTN) of the same molecule?
The value was greater than 10 fold.

And the “CRU frequency, fold increased compared to input 34−KSL cells” value (BM 34−KSL cells [1]; 24 weeks post-transplant)?
The value was 4 fold.

And the “increase in total KSL stem/progenitor cells compared to TSF alone” value (BM 34−KSL cells [2]; [3])?
The value was 17.7 fold.

What about the “increase in total cells compared to TSF alone” value (BM 34−KSL cells [2]; [3]) of the same molecule?
Its value is 6.4 fold.

And the “total cells, % KSL cells and total KSL cells” value (BM 34−KSL cells [2]; addition of 10 to 100 ng/mL PTN to TSF)?
The value was “dose responsive increase”.

And the “KSL cells in culture compared to the progeny of cytokines alone” value (BM 34−KSL cells [2]; [4])?
Its value is “significant increase”.

What about the “total cells in culture compared to the progeny of cytokines alone” value (BM 34−KSL cells [2]; [4]) of the same molecule?
The value was “significant increase”.
